Sequences and labels used below:
B1: LCB4-2 (designed binder)
chain: DREERLKYLEMLLELAVERNDPYLIFDVAIELLRLAEENNDERIYERAKRILEEVE
B2: LCB1-4 (designed binder)
chain: DKENILQKIYEIMKTLDQLGHAEASMQVSDLIYEFMKQGDERLLEEAERLLEEVER
notes: also called LCB1_v1.1
B3: LCB1_v1.5 (LCB1_v1.3 with N-link Glycosylation) (designed binder)
chain: B2 chain with D17E, Q27N
modifications: also: N-linked glycosylation, site not given here
B4: LCB1-5 (designed binder)
chain: B2 chain with Q27N
B5: LCB1_v1.2 (designed binder)
chain: B2 chain with Q27Y
B6: LCB1_v1.4 (designed binder)
chain: B2 chain with D17E, R42N, R49Q, E52Q
B7: AHB2-1 (designed binder)
chain: ELEERVMHLLDQVSELAHELLHKLTGEELQRATHFDKWANEAILELIKSDDEREIREIEEEARRILEHLEELARK
B8: LCB7-1 (designed binder)
chain: DDDIRYLIYMAKLRLEQGNPEEAEKVLEMARFLAERLGMEELLKEVRELLRKIEELR
B9: LCB7-2 (designed binder)
chain: B8 chain with I4V, R14L, M29S, L33A, R36L, M39N
B10: LCB2-1 (designed binder)
chain: SDDEDSVRYLLYMAELRYEQGNPEKAKKILEMAEFIAKRNNNEELERLVREVKKRL
B11: LCB2-2 (designed binder)
chain: B10 chain with S6A, R17L, E19K, K25E, I29L, M32L
B12: LCB1-24GS-LCB1 (designed binder)
chain: DKEWILQKIYEIMRLLDELGHAEASMRVSDLIYEFMKKGDERLLEEAERLLEEVERGGGSGGGSSGGSGGSSGGGSGGGSDKEWILQKIYEIMRLLDELGHAEASMRVSDLIYEFMKKGDERLLEEAERLLEEVER
B13: LCB5-1 (designed binder)
chain: SLEELKEQVKELKKELSPEMRRLIEEALRFLEEGNPAMAMMVLSDLVYQLGDPRVIDLYMLVTKT
B14: LCB1_v1.1-PRO-LCB1_v1.1 (1PRO1) (designed binder)
chain: DKENILQKIYEIMKTLDQLGHAEASMQVSDLIYEFMKQGDERLLEEAERLLEEVERAGSGGSGGSGGSPVPSTPPTPSPSTPPTPSPSPVPSTPPTPSPSTPPTPSPSPVPSTPPTPSPSTPPTPSPSASGDKENILQKIYEIMKTLDQLGHAEASMQVSDLIYEFMKQGDERLLEEAERLLEEVER
B15: Mucin_LCB1_v1.1_Cys (designed binder)
chain: AKAKAKAKAKAKAKAKAKAKGGDKENILQKIYEIMKTLDQLGHAEASMQVSDLIYEFMKQGDERLLEEAERLLEEVERC
B16: LCB8-1 (designed binder)
chain: PIIELLREAKEKNDEFAISDALYLVNELLQRTGDPRLEEVLYLIWRALKEKDPRLLDRAIELFER
B17: LCB8-2 (designed binder)
chain: B16 chain with I2V, I3T, E15P, F16M, Y23F, N26F, L29A, Y42F
B18: LCB3_v1.2 (designed binder)
chain: NDDELHMQMTDLVYEALHFAKDEEIQKHVFQLFEKATKAYKNKDRQKLEKVVEELKELLERLLS
notes: also called LCB3-3
B19: LCB3_v1.5 (designed binder)
chain: B18 chain with F19K, I25M, H28R, K35Q, T37D, N42T
B20: LCB3_v1.4 (designed binder)
chain: B18 chain with F19K, I25F, Y40R
B21: LCB3-4 (designed binder)
chain: B18 chain with K35N
B22: LCB3_v1.3 (designed binder)
chain: B18 chain with I25F
B23: LCB3_v1.1 (designed binder)
chain: B18 chain with I25F, K43N
B24: 36175 (5_LCB1_linker14) (designed binder)
chain: DKEWILQKIYEIMRLLDELGHAEASMRVSDLIYEFMKKGDERLLEEAERLLEEVERGGSGSSGGSGSGSGDKEWILQKIYEIMRLLDELGHAEASMRVSDLIYEFMKKGDERLLEEAERLLEEVERGGSGSSGGSGSGSGDKEWILQKIYEIMRLLDELGHAEASMRVSDLIYEFMKKGDERLLEEAERLLEEVERGGSGSSGGSGSGSGDKEWILQKIYEIMRLLDELGHAEASMRVSDLIYEFMKKGDERLLEEAERLLEEVERGGSGSSGGSGSGSGDKEWILQKIYEIMRLLDELGHAEASMRVSDLIYEFMKKGDERLLEEAERLLEEVER
B25: LCB3_v1.2-GS3-LCB3_v1.2 (3GS3) (designed binder)
chain: NDDELHMQMTDLVYEALHFAKDEEIQKHVFQLFEKATKAYKNKDRQKLEKVVEELKELLERLLSGGGGSGGGGSGGGGSGGGGSGGGGSGGGGSGGGGSGGGGSGGGGSGGGGSGGGGSGGGGSGGGGSGGGGSGGGGSNDDELHMQMTDLVYEALHFAKDEEIQKHVFQLFEKATKAYKNKDRQKLEKVVEELKELLERLLS
B26: Mucin_LCB1_v1.3 (designed binder)
chain: AKAKAKAKAKAKAKAKAKAKGGDKENILQKIYEIMKTLEQLGHAEASMQVSDLIYEFMKQGDERLLEEAERLLEEVER
B27: AHB2-2 (designed binder)
chain: ELEEQVMHVLDQVSELAHELLHKLTGEELERAAYFNWWATEMMLELIKSDDEREIREIEEEARRILEHLEELARK
B28: LCB3_v1.2-PRO-LCB3_v1.2 (3PRO3) (designed binder)
chain: NDDELHMQMTDLVYEALHFAKDEEIQKHVFQLFEKATKAYKNKDRQKLEKVVEELKELLERLLSAGSGGSGGSGGSPVPSTPPTPSPSTPPTPSPSPVPSTPPTPSPSTPPTPSPSPVPSTPPTPSPSTPPTPSPSASGNDDELHMQMTDLVYEALHFAKDEEIQKHVFQLFEKATKAYKNKDRQKLEKVVEELKELLERLLS
B29: LCB3-2 (designed binder)
chain: NDDELLMLVTDLVAEALLFAKDEEIKKRVFTLFELADKAYKNNDRDTLSKVVSELKELLERLQ
B30: LCB4-1 (designed binder)
chain: QREKRLKQLEMLLEYAIERNDPYLMFDVAVEMLRLAEENNDERIIERAKRILEEYE
B31: AHB1-1 (designed binder)
chain: DEDLEELERLYRKAEEVAKEAKDASRRGDDERAKEQMERAMRLFDQVFELAQELQEKQTDGNRQKATHLDKAVKEAADELYQRVR
B32: LCB1_v1.1_Cys (designed binder)
chain: DKENILQKIYEIMKTLDQLGHAEASMQVSDLIYEFMKQGDERLLEEAERLLEEVERC
B33: LCB1-36GS-LCB1 (designed binder)
chain: DKEWILQKIYEIMRLLDELGHAEASMRVSDLIYEFMKKGDERLLEEAERLLEEVERGGGSGGGSGGSGGSGGGSGGGSGSGGSGGGGSGGGSDKEWILQKIYEIMRLLDELGHAEASMRVSDLIYEFMKKGDERLLEEAERLLEEVER
B34: AHB1-2 (designed binder)
chain: DEDLEELERLYRKAEEVAKEAEEASRRGDKERAKELLERALHLFDQVFELAQELQEKLTDEKRQKATHLDKAVHEAADELYQRVR
B35: LCB1_v1.1-GSLCB1_v1.1 (1GS1) (designed binder)
chain: DKENILQKIYEIMKTLDQLGHAEASMQVSDLIYEFMKQGDERLLEEAERLLEEVERGGGGSGGGGSGGGGSGGGGSGGGGSGGGGSGGGGSGGGGSGGGGSGGGGSGGGGSGGGGSGGGGSGGGGSGGGGSDKENILQKIYEIMKTLDQLGHAEASMQVSDLIYEFMKQGDERLLEEAERLLEEVER
B36: LCB5-2 (designed binder)
chain: SLEEVKEILKELKKELSPEDRRLIEEALRLLEEGNPAMASMVLSDLVFLLGDPRVIELLMLVTKT

The source of these data is US20230250134A1 (University of Washington, published 2023).

Numbering of substitutions follows the chain as printed. Where no end group is shown, it is not given here.

The first test addresses SARS-COV-2 Spike glycoprotein receptor binding domain (RBD) (SARS-CoV-2, UniProt P0DTC2 319-541).
Assay: not given
In turn, B1 came in with a Kd of 200 pM.
On the same count and under the same terms, under B2 stands 200 pM; under B3, 200 pM.
On the same count and under the same terms, under B4 stands 200 pM.
Take B5: the Kd amounted to 200 pM.
As for B6, the Kd is 200 pM.
The molecule B7 had a Kd of 200 pM.
B8 showed a Kd of 200 pM.
The same measure, in the same setting: the same measure for B9: 200 pM.
Consider B10, for which the Kd came out at 200 pM.
Same read-out and setting: the same measure for B11: 200 pM; for B12: 200 pM.
Still for that read-out and setting: under B13 stands 200 pM; under B14, 200 pM.
On the same count and under the same terms, under B15 stands 200 pM.
The molecule B16 showed a Kd of 200 pM.
Still for that read-out and setting: the same measure for B17: 200 pM; for B18: 200 pM; for B19: 200 pM.
The same measure, in the same setting: the same measure for B20: 200 pM; for B21: 200 pM.
B22: the Kd amounted to 200 pM.
Consider B23, for which the Kd worked out at 200 pM.
Still for that read-out and setting: the same measure for B24: 200 pM.
The same measure, in the same setting: the same measure for B25: 200 pM.
As for B26, the Kd amounted to 200 pM.
On the same count and under the same terms, under B27 stands 200 pM; under B28, 200 pM; under B29, 200 pM.
Molecule B30 yielded a Kd of 200 pM.
Same read-out and setting: the same measure for B31: 200 pM; for B32: 200 pM.
Still for that read-out and setting: under B33 stands 200 pM; under B34, 200 pM; under B35, 200 pM.
The same measure, in the same setting: under B36 stands 200 pM.

The target in another test is SARS-COV-2 Spike glycoprotein (SARS-CoV-2, UniProt P0DTC2 14-1208). Put plainly: estimated Kd for Spike (avidity), Table 10.
With B1, the Kd is 100 pM.
Same read-out and setting: the same measure for B2: 100 pM; for B3: 100 pM; for B4: 100 pM.
On to B5, for which the Kd was 100 pM.
Take B6: the Kd was 100 pM.
For the molecule B8, the Kd was 100 pM.
Still for that read-out and setting: the same measure for B9: 100 pM; for B10: 100 pM.
As to B11, the Kd was 100 pM.
The same measure, in the same setting: the same measure for B14: 100 pM; for B15: 100 pM.
Still for that read-out and setting: the same measure for B24: 100 pM.
Turning to B25, the Kd was 100 pM.
On the same count and under the same terms, the same measure for B27: 100 pM; for B28: 100 pM.
The same measure, in the same setting: the same measure for B30: 100 pM.
The same measure, in the same setting: the same measure for B32: 100 pM.
As for B35, the Kd is 100 pM.
